From US5661005, “β3 integrin subunit specific polypeptides, cDNAS which encode these polypeptides and methods of producing these polypeptides” (Trustees of the University of Pennsylvania, dated 1997)

T1: integrin β2 cytoplasmic domain (Homo sapiens (Human), UniProt P05107)
T1 chain: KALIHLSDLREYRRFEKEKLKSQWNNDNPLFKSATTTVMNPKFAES

T2: integrin β1 cytoplasmic domain (Homo sapiens (Human), UniProt P05556)
T2 chain: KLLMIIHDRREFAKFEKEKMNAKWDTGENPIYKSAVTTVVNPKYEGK

B1: β3 integrin subunit specific polypeptide comprising about 111 amino acids (SEQ ID NO: 4) (other)
chain: MPVKRSLKLDGLLEENSFDPSKITRKKSVITYSPTTGTCQMSLFASPTSSEEQKHRNGLSNEKRKKLNHPSLTESKESTTKDNDEFMMLLSKVEKLSEEIMEIMQNLSSIQ
B2: polypeptide encoded by clone 28 (SEQ ID NO: 2), β3 integrin subunit specific polypeptide (other)
chain: GHEGPKITRKKSVITYSPTTGTCQMSLFASPTSSEEQKHRNGLSNEKRKKLNHPSLTESKESTTKDNDEFMMLLSKVEKLSEEIMEIMQNLSSIQ

What was measured:
[1] = molecular target: T1, integrin β2 cytoplasmic domain; assay: yeast two-hybrid, quantitative β-galactosidase assay
[2] = molecular target: T2, integrin β1 cytoplasmic domain; assay: as above
[3] = molecular target: β3 cytoplasmic tail with mutation of a serine to a proline at amino acid residue 752 (Saccharomyces cerevisiae (strain ATCC 204508 / S288c) (Baker's yeast); Homo sapiens (Human)) (UniProt P04386); assay: yeast two-hybrid, quantitative β-galactosidase assay of yeast lysates

| Binder | binding result [1] | binding result [2] | reduction in the interaction (against the unmutated β3 cytoplasmic tail) [3] |
| --- | --- | --- | --- |
| B1 | no binding | no binding |  |
| B2 | no binding | no binding | 70% |
